Molecular target: telomerase of HT1080 cells (telomerase-containing fraction, or cellular telomerase in stable HT1080 lines) (human) (UniProt O14746)
Test: cell-based or functional assay

Sequence of telomerase of HT1080 cells (telomerase-containing fraction, or cellular telomerase in stable HT1080 lines) (human) (O14746 whole entry): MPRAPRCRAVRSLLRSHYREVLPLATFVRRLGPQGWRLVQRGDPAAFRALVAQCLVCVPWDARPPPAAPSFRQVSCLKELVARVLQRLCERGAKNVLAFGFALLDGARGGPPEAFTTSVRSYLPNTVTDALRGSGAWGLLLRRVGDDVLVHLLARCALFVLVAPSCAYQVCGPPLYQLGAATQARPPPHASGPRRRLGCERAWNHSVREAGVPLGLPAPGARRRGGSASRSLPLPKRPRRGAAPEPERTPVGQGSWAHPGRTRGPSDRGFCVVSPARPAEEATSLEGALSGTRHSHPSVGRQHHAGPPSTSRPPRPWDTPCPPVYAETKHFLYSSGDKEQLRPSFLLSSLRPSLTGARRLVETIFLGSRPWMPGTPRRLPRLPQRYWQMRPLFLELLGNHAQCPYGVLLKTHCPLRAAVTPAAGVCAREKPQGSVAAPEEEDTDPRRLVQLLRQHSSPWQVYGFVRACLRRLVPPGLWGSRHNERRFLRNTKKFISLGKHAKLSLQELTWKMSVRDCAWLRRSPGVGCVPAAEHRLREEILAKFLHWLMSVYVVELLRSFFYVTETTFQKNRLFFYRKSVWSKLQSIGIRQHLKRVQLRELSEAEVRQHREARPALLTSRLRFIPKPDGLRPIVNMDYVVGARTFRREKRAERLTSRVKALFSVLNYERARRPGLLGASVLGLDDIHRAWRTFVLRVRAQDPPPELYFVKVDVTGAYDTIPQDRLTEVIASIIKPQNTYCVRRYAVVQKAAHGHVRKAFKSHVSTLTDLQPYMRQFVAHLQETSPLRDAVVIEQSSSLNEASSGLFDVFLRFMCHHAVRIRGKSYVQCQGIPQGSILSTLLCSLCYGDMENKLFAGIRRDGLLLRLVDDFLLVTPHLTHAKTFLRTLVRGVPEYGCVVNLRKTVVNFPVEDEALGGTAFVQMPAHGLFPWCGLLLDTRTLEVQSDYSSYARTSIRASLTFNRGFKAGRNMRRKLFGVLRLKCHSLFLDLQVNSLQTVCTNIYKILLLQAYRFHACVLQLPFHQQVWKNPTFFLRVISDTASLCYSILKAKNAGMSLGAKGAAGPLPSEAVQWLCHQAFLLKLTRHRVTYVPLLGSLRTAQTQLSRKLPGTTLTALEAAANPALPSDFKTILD

IC50 of inhibition of telomerase activity in vitro (TRAP assay): 25 nM
Substance: His-PinX1 (N-terminal His fusion of PinX1, pET28a) (from UniProt Q96BK5 1-328)

From US20040142357A1
